# Patent publication US20200087373A1 (UNIVERSITY OF COPENHAGEN, published 2020)
# Numbered stars: 1 amine (or outer) side, 2 acyl side, 3 side chain; on linkers, the order of the positions; unused ones are H or OH. Side chains are listed from the residue outwards. Ends that are not written are not given here. * marks the point of attachment. C16 diacid = O=C(O)CCCCCCCCCCCCCCC(=O)*; γGlu = O=C(O)[C@H](CCC(=O)[*:2])N[*:1]; Palmitoyl = CCCCCCCCCCCCCCCC(=O)*; AEEA = NCCOCCOCC(=O)O; βAla = NCCC(=O)O
# B1: AT117 [hGIP(3-30)NH2[H18K]-C16/18] (peptide)
# peptide: EGTFISDYSIAMDKIK(Palmitoyl)QQDFVNWLLAQK-NH2
# modifications: N-terminus assumed
# SMILES: CCCCCCCCCCCCCCCC(=O)NCCCC[C@H](NC(=O)[C@@H](NC(=O)[C@H](CCCCN)NC(=O)[C@H](CC(=O)O)NC(=O)[C@H](CCSC)NC(=O)[C@H](C)NC(=O)[C@@H](NC(=O)[C@H](CO)NC(=O)[C@H](Cc1ccc(O)cc1)NC(=O)[C@H](CC(=O)O)NC(=O)[C@H](CO)NC(=O)[C@@H](NC(=O)[C@H](Cc1ccccc1)NC(=O)[C@@H](NC(=O)CNC(=O)[C@@H](N)CCC(=O)O)[C@@H](C)O)[C@@H](C)CC)[C@@H](C)CC)[C@@H](C)CC)C(=O)N[C@@H](CCC(N)=O)C(=O)N[C@@H](CCC(N)=O)C(=O)N[C@@H](CC(=O)O)C(=O)N[C@@H](Cc1ccccc1)C(=O)N[C@H](C(=O)N[C@@H](CC(N)=O)C(=O)N[C@@H](Cc1c[nH]c2ccccc12)C(=O)N[C@@H](CC(C)C)C(=O)N[C@@H](CC(C)C)C(=O)N[C@@H](C)C(=O)N[C@@H](CCC(N)=O)C(=O)N[C@@H](CCCCN)C(N)=O)C(C)C
# B2: AT169 [hGIP(5-30)NH2[I7K]-C16diacid/7] (peptide)
# peptide: TFK(C16 diacid)SDYSIAMDKIHQQDFVNWLLAQK-NH2
# modifications: N-terminus assumed
# SMILES: CC[C@H](C)[C@H](NC(=O)[C@H](CO)NC(=O)[C@H](Cc1ccc(O)cc1)NC(=O)[C@H](CC(=O)O)NC(=O)[C@H](CO)NC(=O)[C@H](CCCCNC(=O)CCCCCCCCCCCCCCC(=O)O)NC(=O)[C@H](Cc1ccccc1)NC(=O)[C@@H](N)[C@@H](C)O)C(=O)N[C@@H](C)C(=O)N[C@@H](CCSC)C(=O)N[C@@H](CC(=O)O)C(=O)N[C@@H](CCCCN)C(=O)N[C@H](C(=O)N[C@@H](Cc1c[nH]cn1)C(=O)N[C@@H](CCC(N)=O)C(=O)N[C@@H](CCC(N)=O)C(=O)N[C@@H](CC(=O)O)C(=O)N[C@@H](Cc1ccccc1)C(=O)N[C@H](C(=O)N[C@@H](CC(N)=O)C(=O)N[C@@H](Cc1c[nH]c2ccccc12)C(=O)N[C@@H](CC(C)C)C(=O)N[C@@H](CC(C)C)C(=O)N[C@@H](C)C(=O)N[C@@H](CCC(N)=O)C(=O)N[C@@H](CCCCN)C(N)=O)C(C)C)[C@@H](C)CC
# B3: AT173 [hGIP(5-30)NH2[S11K]-C16diacid/11] (peptide)
# peptide: TFISDYK(C16 diacid)IAMDKIHQQDFVNWLLAQK-NH2
# modifications: N-terminus assumed
# SMILES: CC[C@H](C)[C@H](NC(=O)[C@H](CCCCNC(=O)CCCCCCCCCCCCCCC(=O)O)NC(=O)[C@H](Cc1ccc(O)cc1)NC(=O)[C@H](CC(=O)O)NC(=O)[C@H](CO)NC(=O)[C@@H](NC(=O)[C@H](Cc1ccccc1)NC(=O)[C@@H](N)[C@@H](C)O)[C@@H](C)CC)C(=O)N[C@@H](C)C(=O)N[C@@H](CCSC)C(=O)N[C@@H](CC(=O)O)C(=O)N[C@@H](CCCCN)C(=O)N[C@H](C(=O)N[C@@H](Cc1c[nH]cn1)C(=O)N[C@@H](CCC(N)=O)C(=O)N[C@@H](CCC(N)=O)C(=O)N[C@@H](CC(=O)O)C(=O)N[C@@H](Cc1ccccc1)C(=O)N[C@H](C(=O)N[C@@H](CC(N)=O)C(=O)N[C@@H](Cc1c[nH]c2ccccc12)C(=O)N[C@@H](CC(C)C)C(=O)N[C@@H](CC(C)C)C(=O)N[C@@H](C)C(=O)N[C@@H](CCC(N)=O)C(=O)N[C@@H](CCCCN)C(N)=O)C(C)C)[C@@H](C)CC
# B4: AT175 [hGIP(5-30)NH2[A13K]-C16diacid/13] (peptide)
# peptide: TFISDYSIK(C16 diacid)MDKIHQQDFVNWLLAQK-NH2
# modifications: N-terminus assumed
# SMILES: CC[C@H](C)[C@H](NC(=O)[C@H](CCCCN)NC(=O)[C@H](CC(=O)O)NC(=O)[C@H](CCSC)NC(=O)[C@H](CCCCNC(=O)CCCCCCCCCCCCCCC(=O)O)NC(=O)[C@@H](NC(=O)[C@H](CO)NC(=O)[C@H](Cc1ccc(O)cc1)NC(=O)[C@H](CC(=O)O)NC(=O)[C@H](CO)NC(=O)[C@@H](NC(=O)[C@H](Cc1ccccc1)NC(=O)[C@@H](N)[C@@H](C)O)[C@@H](C)CC)[C@@H](C)CC)C(=O)N[C@@H](Cc1c[nH]cn1)C(=O)N[C@@H](CCC(N)=O)C(=O)N[C@@H](CCC(N)=O)C(=O)N[C@@H](CC(=O)O)C(=O)N[C@@H](Cc1ccccc1)C(=O)N[C@H](C(=O)N[C@@H](CC(N)=O)C(=O)N[C@@H](Cc1c[nH]c2ccccc12)C(=O)N[C@@H](CC(C)C)C(=O)N[C@@H](CC(C)C)C(=O)N[C@@H](C)C(=O)N[C@@H](CCC(N)=O)C(=O)N[C@@H](CCCCN)C(N)=O)C(C)C
# B5: AT171 [hGIP(5-30)NH2[D9K]-C16diacid/9] (peptide)
# peptide: TFISK(C16 diacid)YSIAMDKIHQQDFVNWLLAQK-NH2
# modifications: N-terminus assumed
# SMILES: CC[C@H](C)[C@H](NC(=O)[C@H](CO)NC(=O)[C@H](Cc1ccc(O)cc1)NC(=O)[C@H](CCCCNC(=O)CCCCCCCCCCCCCCC(=O)O)NC(=O)[C@H](CO)NC(=O)[C@@H](NC(=O)[C@H](Cc1ccccc1)NC(=O)[C@@H](N)[C@@H](C)O)[C@@H](C)CC)C(=O)N[C@@H](C)C(=O)N[C@@H](CCSC)C(=O)N[C@@H](CC(=O)O)C(=O)N[C@@H](CCCCN)C(=O)N[C@H](C(=O)N[C@@H](Cc1c[nH]cn1)C(=O)N[C@@H](CCC(N)=O)C(=O)N[C@@H](CCC(N)=O)C(=O)N[C@@H](CC(=O)O)C(=O)N[C@@H](Cc1ccccc1)C(=O)N[C@H](C(=O)N[C@@H](CC(N)=O)C(=O)N[C@@H](Cc1c[nH]c2ccccc12)C(=O)N[C@@H](CC(C)C)C(=O)N[C@@H](CC(C)C)C(=O)N[C@@H](C)C(=O)N[C@@H](CCC(N)=O)C(=O)N[C@@H](CCCCN)C(N)=O)C(C)C)[C@@H](C)CC
# B6: AT181 [hGIP(5-30)NH2[D21K]-C16diacid/21] (peptide)
# peptide: TFISDYSIAMDKIHQQK(C16 diacid)FVNWLLAQK-NH2
# modifications: N-terminus assumed
# SMILES: CC[C@H](C)[C@H](NC(=O)[C@H](CO)NC(=O)[C@H](Cc1ccc(O)cc1)NC(=O)[C@H](CC(=O)O)NC(=O)[C@H](CO)NC(=O)[C@@H](NC(=O)[C@H](Cc1ccccc1)NC(=O)[C@@H](N)[C@@H](C)O)[C@@H](C)CC)C(=O)N[C@@H](C)C(=O)N[C@@H](CCSC)C(=O)N[C@@H](CC(=O)O)C(=O)N[C@@H](CCCCN)C(=O)N[C@H](C(=O)N[C@@H](Cc1c[nH]cn1)C(=O)N[C@@H](CCC(N)=O)C(=O)N[C@@H](CCC(N)=O)C(=O)N[C@@H](CCCCNC(=O)CCCCCCCCCCCCCCC(=O)O)C(=O)N[C@@H](Cc1ccccc1)C(=O)N[C@H](C(=O)N[C@@H](CC(N)=O)C(=O)N[C@@H](Cc1c[nH]c2ccccc12)C(=O)N[C@@H](CC(C)C)C(=O)N[C@@H](CC(C)C)C(=O)N[C@@H](C)C(=O)N[C@@H](CCC(N)=O)C(=O)N[C@@H](CCCCN)C(N)=O)C(C)C)[C@@H](C)CC
# B7: AT167 [hGIP(3-30)NH2[H18K]-C16/18+y-glutamic acid+8-amino-3,6-dioxaoctanoic acid] (peptide)
# peptide: EGTFISDYSIAMDKIK([γGlu-AEEA-Palmitoyl])QQDFVNWLLAQK-NH2
# modifications: also: order of γGlu and AEEAc linker pieces on Lys not given here
# B8: AT166 [hGIP(3-30)NH2[H18K]-C16/18+β-alanine] (peptide)
# peptide: EGTFISDYSIAMDKIK([βAla-Palmitoyl])QQDFVNWLLAQK-NH2
# modifications: N-terminus assumed
# SMILES: CCCCCCCCCCCCCCCC(=O)NCCC(=O)NCCCC[C@H](NC(=O)[C@@H](NC(=O)[C@H](CCCCN)NC(=O)[C@H](CC(=O)O)NC(=O)[C@H](CCSC)NC(=O)[C@H](C)NC(=O)[C@@H](NC(=O)[C@H](CO)NC(=O)[C@H](Cc1ccc(O)cc1)NC(=O)[C@H](CC(=O)O)NC(=O)[C@H](CO)NC(=O)[C@@H](NC(=O)[C@H](Cc1ccccc1)NC(=O)[C@@H](NC(=O)CNC(=O)[C@@H](N)CCC(=O)O)[C@@H](C)O)[C@@H](C)CC)[C@@H](C)CC)[C@@H](C)CC)C(=O)N[C@@H](CCC(N)=O)C(=O)N[C@@H](CCC(N)=O)C(=O)N[C@@H](CC(=O)O)C(=O)N[C@@H](Cc1ccccc1)C(=O)N[C@H](C(=O)N[C@@H](CC(N)=O)C(=O)N[C@@H](Cc1c[nH]c2ccccc12)C(=O)N[C@@H](CC(C)C)C(=O)N[C@@H](CC(C)C)C(=O)N[C@@H](C)C(=O)N[C@@H](CCC(N)=O)C(=O)N[C@@H](CCCCN)C(N)=O)C(C)C
# Assays:
# human GIP receptor [1] = target: T1, human GIP receptor (human, UniProt P48546 22-466); test: 125I-hGIP(1-42) competition binding, COS-7 cells expressing human GIPR, 0.1% casein (no HSA)
# T1 construct: whole, on cells; Transiently transfected COS-7 cells expressing the human GIP receptor; also called hGIPR
# T1 sequence (looked up): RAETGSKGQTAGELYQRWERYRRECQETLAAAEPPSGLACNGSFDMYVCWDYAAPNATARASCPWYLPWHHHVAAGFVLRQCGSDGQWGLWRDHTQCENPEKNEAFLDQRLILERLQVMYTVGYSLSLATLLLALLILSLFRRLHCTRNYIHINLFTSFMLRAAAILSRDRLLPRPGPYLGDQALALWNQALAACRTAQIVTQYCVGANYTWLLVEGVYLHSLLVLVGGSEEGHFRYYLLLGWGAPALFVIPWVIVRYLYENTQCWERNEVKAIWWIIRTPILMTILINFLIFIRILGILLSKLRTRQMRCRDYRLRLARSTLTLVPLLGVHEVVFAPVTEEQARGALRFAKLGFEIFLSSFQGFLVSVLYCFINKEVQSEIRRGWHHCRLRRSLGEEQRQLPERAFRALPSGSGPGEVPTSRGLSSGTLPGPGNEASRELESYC
# Description: (§1) After incubation, the cells were washed twice in ice-cold binding buffer (+/−2% HSA) and lysed using 200 mM NaOH with 1% SDS for 30 min. Nonspecific binding was determined as the binding of radioactive ligand to untransfected cells.
# human GIP receptor [2] = target: T1, human GIP receptor; test: 125I-hGIP(1-42) competition binding, COS-7 cells expressing human GIPR, 2% HSA
# Description: as §1
# human GIP receptor [3] = target: T1, human GIP receptor; test: cell-based or functional assay
# human GIP receptor [4] = target: T1, human GIP receptor; test: 125I-hGIP(1-42) competition binding, COS-7 cells expressing human GIPR
# Description: as §1
# human serum albumin = target: T2, human serum albumin (human, UniProt P02768 25-609); test: 125I-human GIP competition binding on hGIPR COS-7 cells with and without 2% HSA; fold change of IC50 taken as HSA binding
# T2 construct: also called HSA; human albumin
# T2 sequence (P02768 25-609 limits assumed): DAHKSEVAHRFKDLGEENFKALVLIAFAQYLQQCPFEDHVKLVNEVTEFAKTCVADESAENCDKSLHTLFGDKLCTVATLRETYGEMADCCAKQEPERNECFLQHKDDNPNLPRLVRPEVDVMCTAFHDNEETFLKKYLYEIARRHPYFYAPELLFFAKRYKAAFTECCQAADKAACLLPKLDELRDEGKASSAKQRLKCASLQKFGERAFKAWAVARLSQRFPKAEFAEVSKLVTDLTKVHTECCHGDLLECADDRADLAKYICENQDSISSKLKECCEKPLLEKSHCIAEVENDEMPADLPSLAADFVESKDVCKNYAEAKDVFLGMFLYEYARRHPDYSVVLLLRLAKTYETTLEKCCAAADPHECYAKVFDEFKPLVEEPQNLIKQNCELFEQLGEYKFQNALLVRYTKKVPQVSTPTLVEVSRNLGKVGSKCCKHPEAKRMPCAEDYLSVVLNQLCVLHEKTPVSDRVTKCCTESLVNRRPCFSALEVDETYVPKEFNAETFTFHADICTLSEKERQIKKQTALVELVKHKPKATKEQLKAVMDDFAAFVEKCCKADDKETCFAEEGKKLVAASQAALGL
# Description: as §1
# human GIP receptor [5] = target: T1, human GIP receptor; test: cell-based or functional assay; remark: listed apart in the source
binder,measurement,setting,value
B1,IC50,human GIP receptor [1],110 nM
same,IC50,human GIP receptor [2],1730 nM
same,cAMP - antagonisme IC50,human GIP receptor [3],19.4 nM
same,IC50,human GIP receptor [4],292 nM
B2,binding result,human serum albumin,binds
B3,binding result,human serum albumin,binds
B4,binding result,human serum albumin,binds
B5,binding result,human serum albumin,binds
B6,binding result,human serum albumin,binds
B7,cAMP accumulation Fold change (from GIP(3-30)NH2),human GIP receptor [5],14.8 fold
same,cAMP accumulation IC50,human GIP receptor [5],4.4 nM
same,cAMP accumulation logIC50,human GIP receptor [5],-8.36 log(M)
B8,cAMP accumulation Fold change (from GIP(3-30)NH2),human GIP receptor [5],2.9 fold
same,cAMP accumulation IC50,human GIP receptor [5],22.9 nM
same,cAMP accumulation logIC50,human GIP receptor [5],-7.64 log(M)
